Kd data for one substance are collected here from paper doi:10.1101/2024.09.06.611148.

For the assay, the target named is Alexa-647 NHS-labelled tubulin (UniProt P02550). Put plainly: MST.
Sequence of Alexa-647 NHS-labelled tubulin (P02550 whole entry, looked up): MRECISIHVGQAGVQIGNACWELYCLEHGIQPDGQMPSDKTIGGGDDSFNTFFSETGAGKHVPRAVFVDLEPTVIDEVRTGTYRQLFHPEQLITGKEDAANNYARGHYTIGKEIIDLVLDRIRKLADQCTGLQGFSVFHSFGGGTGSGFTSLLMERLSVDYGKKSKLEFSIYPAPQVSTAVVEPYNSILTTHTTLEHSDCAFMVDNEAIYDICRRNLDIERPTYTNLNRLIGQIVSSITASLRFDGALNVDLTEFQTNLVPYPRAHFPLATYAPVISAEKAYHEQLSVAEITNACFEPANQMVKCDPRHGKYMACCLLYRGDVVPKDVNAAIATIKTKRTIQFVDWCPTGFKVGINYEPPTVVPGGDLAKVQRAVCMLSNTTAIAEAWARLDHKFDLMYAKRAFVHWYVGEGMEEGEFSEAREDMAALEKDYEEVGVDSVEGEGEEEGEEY

With “recombinant HYC2 (GST-HYC2 or HYC2-6XHis) (from UniProt Q9FMI8 1-448) (natural protein)”, the Kd (commonly the concentration at which binding is half-saturated) was 0.69 µM.
